Reference: publication doi:10.1101/329136

Key:
[1] = molecular target: talin VBS1 (H1-H4) residues 482-636 (UniProt Q9Y490); experiment: ITC
[2] = molecular target: IpaA 524-633 containing only IpaA VBS1-2 (A524) (Shigella flexneri) (UniProt P18010); experiment: ITC
[3] = molecular target: IpaA 483-633 containing all three VBS1-3 (A483) (Shigella flexneri) (UniProt P18010); experiment: ITC
[4] = molecular target: IpaA 483-633 containing all three VBS1-3 (A483) (Shigella flexneri) (UniProt P18010); experiment: SEC-MALS
[5] = molecular target: talin VBS1 (H1-H4) residues 482-636 (UniProt Q9Y490); experiment: SEC-MALS

Substance | Kd [1] [nM] | also measured
IpaA VTBS peptide (488-512) | 174 | –
IpaA VTBS R489A K498A peptide | 328 | –
IpaA-VBS1 peptide (611-633) (from UniProt P18010 611-633) | 15200 | –
IpaA VTBS K498E peptide | 300 | –
Talin VBS46 peptide | 60 | –
talin VBS1 (H1-H4) residues 482-636 (from UniProt Q9Y490 482-636) (domain or fragment) | – | Kd [2]: 2000 nM; KD of the first, high affinity site [3]: 115 nM; KD of the second site [3]: 4600 nM; stoichiometry N (talin H1-H4 per A483) [4]: 2; stoichiometry N [5]: 2
IpaA VTBS A495K peptide | 2930 | –
Talin VBS50 peptide | 15000 to 45000 | –
